Biological target: S. pombe histones H3−H4 (S. pombe, UniProt P09988 1-136; P09322 1-103)
Assay: SEC

binding result: binds
B1: SpCAF-1 complex (Pcf1-Pcf2-Pcf3), wild type, full length (complex, S. pombe)
chain 1: MNSESVDSDVAASTSNKGNELCSSSTDITSLSVSSPNESVIHSSHSASEADEYVCKLSYEGNRKKRIYNGSAEAGKEKKLQKQRAQEERIRQKEAERLKREKERQQREQEKKLREQEKIAAKKMKELEKLEKERIRLQEQQRRKEERDQKLREKEEAQRLRQEQILNKERQQLKLNNFFTKGVEKRIAPNENFVADKTDELNEFEKEFRPFFIKHQMSLSKYPSPNESDSFLDEVLSTSKSYPLKLNDIFTPSDAVSSANSLGVSNRNSENEVRQLMSAYQDPSVSKPQEILSCLSQIPIKFIFFYQDVRPPYFGSYTKTHSHGSNVLLNPWLEDEDIDYTYDSEAEWVADEEDDGEDLESEDEEVDNSDDIVEDGDNAFVDDEDDDKDSVNASNTHRSSGPLEVIVEGPVWDSKFLPDFNCLSLIEPISSFSASTYLQIDPKEDLWASQDTAPASSGMTIGPTSSLSDDLQVRFPSEDIPKFIEYVRNSHDNKVFLIENLRHMFPYVTKNIISETLGKVAVRKGKSVSDGWIIKENFASLLSS
chain 2: MRAEVLQIRWHYDANDDHTPIYSVDFQKNSLNKFATCGGDSKIRIWQLITSESSTKVEYLSTLSRHTQAVNVVRFNPEGNILATAGDEGTIMLWVPTNTPITTLADDAEELALAKEYWKVKIVCRSMGSEIYDLCWSVDSNFLIAGAMDNSLRLYDAHTGQLLTQKFDHSHYVQGVCWDPLNQYIVSESSDRSICLYEIQEEKKNPKKFQLVLKSRICRIEYNVTKFELISVTKPLNNDESSGISEPIETSNNNESPVSKHEALSSTANIVKDGSLERTEPPNSLNSKISYSLYCNETLVSFFRRPAFSPDGLLLVTPAGRLRPHGQPNFEVPYTAYIYTRGSITKQPVACLNGFKKPVIAVRFSPIHYELNSFSNFSFTSVSFNLPYRMVFAVACQDAVYIYDTQTCKPFYRAVNLHYSNLTDIAWNDDGNVLLMTSIDGFCSVITFEPGELGVKSQHKISLPEKRSASPSSIDDSQDNTAGGPATTTLIPRKVESSKVSKKRIAPTPVYP
chain 3: MNTELDMQNFEHIKFLENQISEDHFRWKKNSKHLYNLLITRTLTWPSLSIQWLSAMESITEKAVLKNRLLLGTHAAEGMPNFLQLADLDLPDFNQTILDPVKHYNEDTGELGGYSMQHSCKFQISQRILHNGDVNRVRHMPQNPNIIATMSSCGNAYIFDRTKYTSMPAEEFLPNISLIGHKKEGFGLSWNRQQNCRLVTAANDSKILEWDLNNFSRDTRCLTPVKDFHYDDSPVNDVEYHPHHTNLYIAVNDNGIAFICDNRLQQTCSKTVKASNPLFSVRHNPSIATLFALGSEQDLQLWDLRNLNKSVFNTSEDLSDNRLKVPSRLTLGGTSLSWSWRHSGRIVSACQEYCYVWNFNKANPLEFVHAGHKGTVNEVDFDPFEAQCIASVADDNELHIWKPNVIVN
